According to patent US9289506B2, “Surface binding of nanoparticle based drug delivery to tissue” (Massachusetts Institute of Technology, priority 2013, dated 2016):

How the values were obtained:
[1] = Non-equilibrium diffusive transport across cartilage disks (transport cell); type: in vitro ADME, bovine; settings: free FITC added upstream at t=186 min
Protocol: Real-time measurement of diffusive transport of Avidin and NeutrAvidin through young bovine cartilage disks (with intact superficial zone) was measured using a diffusion chamber consisting of two compartments as described previously (Garcia et al., Arch Biochem Biophys, 2003). Groups of three cartilage disks (6 mm diameter, 400 μm thick) were clamped by O-rings between the two compartments of the diffusion chamber (with total exposed tissue area for transport of 0.28 cm^2/disk), such that solute transport from the upstream compartment into and across the cartilage disks, simultaneously, could occur only from the superficial zone of the cartilage (schematic shown in the inset of FIG. 14). The compartments were treated with casein to prevent non-specific adsorption of solutes to the chamber surfaces. […] Aliquots were taken from each chamber at different time intervals, and fluorescence was measured using a plate reader.
The compartment volume of 25 ml is approximately 1,000× larger than the volume of the cartilage plugs in the configuration of FIG. 14 (inset). […] This configuration thereby focuses on quantitation of steady state solute flux and assessment of effective solute diffusivity within cartilage. […]
[formula] where δ is the thickness of the cartilage disk (˜400 μm). DEFF for Avidin was calculated to be 3.8×10^−7 cm^2/s. […]

[2] = Competitive binding of FITC-Avidin and unlabeled Avidin in cartilage (binding isotherm fit); set-up: species or system bovine; settings: labeled Avidin ≦1 μM, no unlabeled Avidin, 3 day equilibration, 37° C.
Protocol: To test this hypothesis, competitive binding experiments were performed in which 3 mm diameter cartilage disks were equilibrated for 3 days in 300 μl buffer containing a fixed amount of (fluorescently labeled) FITC-Avidin (1 μM) and graded amounts of unlabeled Avidin (0, 10, 76, 100, and 203 μM). The disks were split into half disks to reduce the time needed for equilibration, which was performed in 96 well plates at 37° C. The uptake ratio, RU, was measured and plotted versus the total bath concentration of Avidin (labeled+unlabeled, FIG. 13), where RU is defined as the total concentration of Avidin inside the cartilage (bound (CB) plus free (CF)) per intra-tissue water weight, normalized to the Avidin concentration in the equilibration bath (CBath):
Labeled and unlabeled Avidin were held to partition into the cartilage identically. At very low concentration of the labeled Avidin (≦1 μM), a high uptake of ˜120 was observed. When unlabeled Avidin was added to the bath, both species (labeled and unlabeled) could compete for the same (constant) number of binding sites available in the tissue (site density NT). […] To model the data of FIG. 13, a first-order, bimolecular, reversible reaction was produced to describe binding of Avidin to a single dominant binding species within cartilage. A theoretical model was adopted, (Garcia et al., Arch Biochem Biophys, 2003) previously used for characterizing the binding of soluble insulin like growth factor-1 (IGF-1) to IGF-binding proteins (IGF-BPs) that are uniformly enmeshed and fixed within cartilage matrix. According to this model, the equilibrium molar concentration of free solute (CF), bound solute (CB), intra-tissue binding site density (NT) and the equilibrium dissociation constant (KEQ) are related by the binding isotherm:
[formula] which is similar in form to a Langmuir adsorption isotherm. […]
[formula] […] Thus, K is determined by both steric hindrance and electrostatic (Donnan) interactions. […]

[3] = Intra-articular injection of Avidin or Neutravidin in rat knee joints: penetration, uptake and retention in joint tissues
Protocol: Intra-articular (i.a.) injections of 50 μl of 50 μM Avidin (pI 10.5, 66 kDa, diameter ˜7 nm) or Neutravidin (neutral at pH 7, 60 kDa, diameter ˜7 nm) conjugated with Texas Red (both from Invitrogen, CA) were administered in the right knee joints of healthy 18-20 weeks old Fischer-344 rats (Charles River Laboratories). Following the injection, rat knees were flexed and extended to distribute the injected solute throughout the intra-articular space. Contralateral left knees were used as controls. Avidin injected rats were sacrificed at 4 different time points (6 h, 1 d, 4 d, 7 d) and Neutravidin injected rats were sacrificed after 1 day. The following tissue types were extracted from each joint: articular cartilage removed from the patellar groove, femoral condyle and tibial plateau using a scalpel; medial and lateral menisci; i.a. ligaments (ACL & PCL); patellar and quadriceps tendons; and femoral bone. 6 rats were used per treatment condition for a total of 30 rats. Using a digital caliper (Fisher Scientific), the joint thickness was measured before and after the injection at each time point to check for joint swelling indicating an inflammatory response to the injection.
Tissue samples extracted from the rat joints injected with Avidin-Texas Red (Excitation at 595 nm and emission at 615 nm) and sacrificed at 6 h were imaged using a confocal microscope (OLYMPUS, FluoView FV1000) at 10× magnification by taking Z stacks. Images were taken in X-Y plane, which represents the surface through which Avidin diffused. 3D images were reconstructed using Z stacking (slice thickness˜4.5 μm) and cross-sections in the X-Z plane of these 3D images were taken.
Tissue samples from all treatment conditions were then desorbed in 10×PBS for 48 h in 37° C. incubator to disrupt electrostatic interactions and release Avidin/Neutravidin into the desorption bath. […] At the end of the experiment, tissue samples were removed from the bath, lyophilized and the dry weight was measured. Fluorescence signal from desorption bath was quantified using a plate reader (Synergy HT, BioTek). […] The solute uptake was calculated as the concentration of labeled solute in the tissue samples normalized by tissue dry weight.
The half-life of Avidin was calculated by fitting an exponential curve to the experimental data:
Where, C0 is the initial and C(t) is the final Avidin concentration in tissue after time t and λ is the decay constant.

[4] = Equilibrium uptake and desorption of Avidin and NeutrAvidin in cartilage disks; type: in vitro ADME, bovine
Text: Cartilage disks were harvested from the femoropatellar grooves of 1-2 week old bovine calf knee joints (obtained from Research 87, Hopkinton, Mass.) as described previously (Patwari et al., Arthritis Rheum, 2003). Briefly, cylindrical cartilage disks (3 mm or 6 mm diameter) were cored using a dermal punch and then sliced to obtain the top 1 mm of cartilage with intact superficial zone. Cartilage disks for all treatment groups were matched for depth and location along the joint surface. The disks were then pre-equilibrated in PBS (without Ca^2±/Mg^2±) supplemented with protease inhibitors (Complete Protease Cocktail tablet in 50 mL PBS, Roche Applied Science, IN) in a 37° C., 5% CO2 incubator for 24-48 h.
Equilibrium uptake of Avidin and NeutrAvidin: 3 mm diameter, 1 mm thick cartilage explants were incubated for specific times in 300 μl of known concentration (3 μM) of FITC-Avidin and FITC-NeutrAvidin, supplemented with protease inhibitors at 37° C. in a 96 well plate format. After removal from the absorption baths, the disks were rinsed, gently wiped and then incubated in 1× or 10×PBS supplemented with protease inhibitors for 24 h or longer as specified. At the end of the experiment, the surfaces of each disk were quickly blotted with Kimwipes and the wet weight was measured. The disks were then lyophilized and the dry weight was measured; the water weight was calculated from the tissue wet and dry weights. The fluorescence signal in the absorption and desorption baths was quantified using a plate reader (1400 Wallace Victor, PerkinElmer, MA); the solute content inside the cartilage disk was determined from the difference between the fluorescence reading of the absorption/desorption baths before and after incubation. […] The solute uptake ratio was calculated as the concentration of the FITC-solute in the cartilage (per intra-tissue water weight) normalized to the concentration of FITC-solute in the equilibration bath.

[5] = One-way diffusion of solutes into cartilage half disks in transport chamber, confocal microscopy imaging; type: in vitro ADME, bovine; settings: normal cartilage, 4 days
Text: Solute Types: Two types of 15 nm diameter (MW˜300 kDa) Quantum Dots (QD) were used: (i) positively charged, and (ii) charge-neutral; same concentration. Transport of FITC (MW˜300 Da, diam˜0.9 nm) and dextrans (Dex) conjugated with FITC (Sigma Aldrich) of different MW (˜8 kDa, diam˜4.3 nm; ˜40 kDa, diam˜10 nm) were also investigated.
Transport Studies: A special PMMA transparent transport chamber was designed to allow diffusion of solutes into only one side (superficial zone) of the cartilage disk. The chamber was treated with Casein to block non-specific binding of solutes to chamber surfaces. The equilibrated cartilage disks were then cut into halves and placed in the middle of the ‘slot chambers’ of the fixture. The chamber side facing the superficial zone was filled with ˜45 μl of solute-PBS solution; the other side was filled with 1×PBS alone. […]
Using a scalpel, a slice (100-200 μm thick) was then cut from the center of each disk (FIG. 1B). […] Appropriate filters were chosen to eliminate auto-fluorescence of cartilage at the settings used for imaging. […] To ensure proper image comparison, solute concentrations were chosen such that the FITC concentration in each solution was identical, thereby giving equal fluorescence intensities.

[6] = pH 7
Text: For the non-covalent conjugation, drug was entrapped inside Avidin structure supra-molecularly, while an ester linker and/or pH sensitive hydrazone linker was utilized for the covalent conjugation.

[7] = rabbit knee; cited from earlier work

## fluorescein isothiocyanate [Fluorescein Isothiocyanate (FITC), reference compound]
[1]
  diffusivity: 2.8×10^−5 cm^2/s

## Avidin-FITC: FITC-conjugated Avidin [reference compound]
[2]
  uptake ratio RU: ~120

## NeutrAvidin: electrically neutral globular protein at pH 7, 60 kDa, diameter ~7 nm; neutral counterpart of Avidin [reference compound]
[3]; 24 h after i.a. injection
  presence in rat cartilage and patellar tendon: no Neutravidin present
[3]; 24 h after i.a. injection, compared to Avidin
  presence in meniscus, ligaments and quadriceps tendon: small but very insignificant amounts
[3]; any time point
  detection in the femoral bone: Neither Avidin nor Neutravidin was detected
[3]; within 24 h
  clearance from joint after i.a. injection: almost complete clearance
[4]; 1×PBS, within 1 day
  percent of absorbed solute diffused out of the cartilage: About 50%
[4]; 40% GAG-depleted cartilage (chondroitinase-ABC), 24 h
  mean uptake ratio: 0.55
[4]; estimated from the data of FIG. 12B
  partition coefficient KNeutrAvidin: 0.44
[4]; normal cartilage, 24 h
  mean uptake ratio: 0.28
[4]; normal cartilage, 4 days
  mean uptake ratio: ~0.44
[5]
  penetration into cartilage explant: penetrated approximately half the sample thickness

## hydrazone linker: Avidin conjugated with dexamethasone through pH sensitive hydrazone linkage via biotinylated PEG (FIG. 21C, FIG. 24)
[6]
  stability of linker: extremely stable

## albumin
[7]
  Half-life: 1.23 to 3.9 h
